Experimental data published in patent publication US20240301031A1 (JIANGSU HENGRUI PHARMACEUTICALS, published 2024).
Read-outs that look alike come from different tables or passages of the source.

T1: human APRIL (5860-AP-010/CF, R&D Systems) (human, UniProt O75888 115-250, limits assumed)
T1 construct: Bought protein
T1 sequence (looked up): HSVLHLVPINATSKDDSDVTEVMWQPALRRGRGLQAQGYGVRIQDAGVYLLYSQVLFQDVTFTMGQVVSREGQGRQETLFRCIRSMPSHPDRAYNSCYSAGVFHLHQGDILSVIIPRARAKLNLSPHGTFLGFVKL


What was measured:
[1] = molecular target: T2, human BAFF (10056-HNCH, Sino biological) (human, UniProt Q9Y275 134-285); assay: ELISA, BAFF coated, fusion protein titrated
T2 construct: Bought protein
Description: (§1) The binding activity of the antibodies or fusion proteins for BAFF, APRIL, and IL-12/23 p40 was assayed by the ELISA method (coating an antigen protein). The specific procedures were as follows:
(§2) A BAFF (Sino biological, 10056-HNCH), APRIL (R&D Systems, 5860-AP-010/CF), or IL-12/23 p40 (Sino biological, 10052-H08H) protein was diluted to 1 μg/mL with a PBS (BasalMedia, B320) buffer at pH 7.4, and added to a 96-well microplate (Corning, 3590) at 100 μL/well. The plate was incubated at 4° C. overnight. After the liquid was discarded, 300 μL of 5% skim milk (BD, 232100) diluted with PBS was added to each well for blocking, and the plate was incubated at 37° C. for 2 h. After the blocking was completed, the blocking solution was discarded, and the plate was washed 3 times with a PBST buffer (PBS at pH 7.4 containing 0.1% tween-20). 100 μL of test antibody or fusion protein solution diluted in a gradient was added to each well, and the plate was incubated at 37° C. for 1 h. After the incubation was completed, the plate was washed 3 times with PBST. […] The plate was washed 3 times with PBST. 100 μL of TMB chromogenic substrate (KPL, 5120-0077) was added to each well, and the plate was incubated at room temperature for 10-15 min. The reaction was stopped by adding 50 μL of 1 M H₂SO₄ to each well. The plate was read for absorbance values at 450 nm on a microplate reader, the binding curves of the antibodies to an antigen were fitted with software, and the EC₅₀ values were calculated.

[2] = molecular target: T2, human BAFF (10056-HNCH, Sino biological); assay: competition ELISA: biotin-labeled BAFF to coated BAFF-R
Description: (§3) The blocking activity of the antibodies and the fusion proteins for receptors and ligands such as BAFF/BAFF-R, BAFF/BCMA, BAFF/TACI, APRIL/BCMA, APRIL/TACI, and p40/IL-12R1 was assayed by the ELISA method. The specific procedures were as follows:
(§4) A receptor protein was diluted to 2 μg/mL with PBS at pH 7.4 (BasalMedia, B320) and added to a 96-well microplate (Corning, 3590) at 100 μL/well. The plate was incubated at 4° C. overnight. After the liquid was discarded, 200 μL of 1% Casein blocking solution (Thermo, 37528) was added to each well for blocking, and the plate was incubated at 37° C. for 2 h. After the blocking was completed, the blocking solution was discarded, and the plate was washed 3 times with a PBST buffer (PBS at pH 7.4 containing 0.1% tween-20) for later use. A biotin-labeled ligand protein at a fixed concentration was mixed with the antibody or fusion protein diluted in gradient, pre-incubated at 37° C. for 30 min, and added to a blocked microplate. The plate was incubated at 37° C. for 1.5 h. After the incubation was completed, the plate was washed 3 times with PBST. 100 μL of streptavidin-HRP (Invitrogen, 434323, diluted at a ratio of 1:4000) was added to each well, and the plate was incubated at 37° C. for 1 h. The supernatant was removed, and the plate was washed 3 times with PBST. 100 μL of TMB chromogenic substrate (KPL, 5120-0077) was added to each well, and the plate was incubated at room temperature for 10-15 min. The reaction was stopped by adding 50 μL of 1 M H₂SO₄ to each well. The plate was read for absorbance values at 450 nm on a microplate reader, the curves for the inhibition of the binding of the ligands to the receptors were fitted with software, and the IC₅₀ values were calculated.

[3] = molecular target: T2, human BAFF (10056-HNCH, Sino biological); assay: as above; remark: listed apart in the source
Description: as §3, §4

[4] = molecular target: T3, BAFF (ACROBiosystems, BAF-H5248) (UniProt Q9Y275 134-285); assay: ELISA, fusion protein coated, BAFF titrated, Anti-His-HRP
T3 construct: Bought protein used in the ELISA with coated test sample
Description: The binding activity of the TACI fusion proteins for BAFF and APRIL was assayed by the ELISA method (coating a test fusion protein sample). The specific procedures were as follows:
The test sample was diluted to 2 μg/mL with a PBS (BasalMedia, B320) buffer at pH 7.4 and added to a 96-well microplate (Corning, 3590) at 100 μL/well. The plate was incubated at 4° C. overnight. After the liquid was discarded, 300 μL of 5% skim milk (BD, 232100) diluted with PBS was added to each well for blocking, and the plate was incubated at 37° C. for 2 h. After the blocking was completed, the blocking solution was discarded, and the plate was washed 3 times with a PBST buffer (PBS at pH 7.4 containing 0.1% tween-20). 100 μL of BAFF (ACROBiosystems, BAF-H5248) or APRIL (R&D Systems, 5860-AP-010/CF) diluted in a gradient was added to each well, and the plate was incubated at 37° C. for 1 h. After the incubation, the plate was washed 3 times with PBST. When detecting the binding to BAFF, 100 μL of Anti-His-HRP (Sino biological, 105327-MM02T-H, diluted at a ratio of 1:2000) was added to each well; when detecting the binding to APRIL, 100 μL of anti-HA-HRP (Abcam, ab1190, diluted at a ratio of 1:4000) was added to each well. The plate was incubated at 37° C. for 1 h. The plate was washed 3 times with PBST. 100 μL of TMB chromogenic substrate (KPL, 5120-0077) was added to each well, and the plate was incubated at room temperature for 10-15 min. The reaction was stopped by adding 50 μL of 1 M H₂SO₄ to each well. The plate was read for absorbance values at 450 nm on a microplate reader, the binding curves of the antibodies to an antigen were fitted with software, and the EC₅₀ values were calculated.

[5] = molecular target: T2, human BAFF (10056-HNCH, Sino biological); assay: ELISA, BAFF coated, fusion protein titrated; remark: listed apart in the source
Description: as §1, §2

[6] = molecular target: T2, human BAFF (10056-HNCH, Sino biological); assay: competition ELISA: biotin-labeled BAFF to coated BAFF-R; remark: listed apart in the source
Description: as §3, §4

[7] = molecular target: T1, human APRIL (5860-AP-010/CF, R&D …); assay: SPR (Biacore), sample captured on Protein A, antigen flowed, 1:1 fit
Description: A certain amount of test sample was subjected to affinity capture by a biosensor chip Protein A (GE, 29127556), then antigens at a series of concentration gradients were allowed to flow on the surface of the chip. The reaction signals were detected in real time by using Biacore (GE, 8K) to obtain association and dissociation curves. After the dissociation was completed for each cycle, the biochip was washed and regenerated with a 10 mM glycine-hydrochloric acid solution at pH 1.5 (GE, BR-1003-54). The experimental data were fitted using BIAevaluation version 4.1, GE software with a 1:1 model to obtain affinity values. The related antigen proteins used in this assay are as follows: human IL-23 (CT048-H08H, Sino biological), human IL-12 (CT050-H08H, Sino biological), human BAFF (10056-HNCH, Sino biological), human APRIL (5860-AP-010/CF, R&D Systems), cynomolgus monkey p40 (10215-CL, R&D Systems), cynomolgus monkey BAFF (BAF-CM412B, Kactus), cynomolgus monkey APRIL (APR-CM410B, Kactus), mouse BAFF (BAF-M521y, Acro Biosystems), and mouse APRIL (7907-AP/CF, R&D Systems).

[8] = molecular target: T2, human BAFF (10056-HNCH, Sino biological); assay: as above

| EC50 [1] | IC50 [2] | Binder | further results |
| --- | --- | --- | --- |
| 0.584 nM | 2.62 nM | TACI-11 Fc (Fc fusion, TACI-9 truncated at the C-terminus by 2 amino acids KL, fused directly to Fc; two identical polypeptides) SLSCRKEQGKFYDHLLRDCISCASICGQHPKQCAYFCENDKTHTCPPCPAPEAEGAPSVFLFPPKPKDTLMISRTPEVTCVVVDVSHEDPEVKFNWYVDGVEVHNAKTKPREEQYNSTYRVVSVLTVLHQDWLNGKEYKCKVSNKALPSSIEKTISKAKGQPREPQVYTLPPSRDELTKNQVSLTCLVKGFYPSDIAVEWESNGQPENNYKTTPPVLDSDGSFFLYSKLTVDKSRWQQGNVFSCSVMHEALHNHYTQKSLSLSPGK |  |
| 3.66 nM | 30.1 nM | TACI-13 Fc (Fc fusion, Fused directly to Fc; two identical polypeptides) SLSCRKEQGKFYDHLLRDCISCASICGQHPKQCAYFCDKTHTCPPCPAPEAEGAPSVFLFPPKPKDTLMISRTPEVTCVVVDVSHEDPEVKFNWYVDGVEVHNAKTKPREEQYNSTYRVVSVLTVLHQDWLNGKEYKCKVSNKALPSSIEKTISKAKGQPREPQVYTLPPSRDELTKNQVSLTCLVKGFYPSDIAVEWESNGQPENNYKTTPPVLDSDGSFFLYSKLTVDKSRWQQGNVFSCSVMHEALHNHYTQKSLSLSPGK |  |
| 0.894 nM | 3.86 nM | TACI-12 Fc (Fc fusion, TACI-9 truncated at the C-terminus by 3 amino acids NKL, fused directly to Fc; two identical polypeptides) SLSCRKEQGKFYDHLLRDCISCASICGQHPKQCAYFCEDKTHTCPPCPAPEAEGAPSVFLFPPKPKDTLMISRTPEVTCVVVDVSHEDPEVKFNWYVDGVEVHNAKTKPREEQYNSTYRVVSVLTVLHQDWLNGKEYKCKVSNKALPSSIEKTISKAKGQPREPQVYTLPPSRDELTKNQVSLTCLVKGFYPSDIAVEWESNGQPENNYKTTPPVLDSDGSFFLYSKLTVDKSRWQQGNVFSCSVMHEALHNHYTQKSLSLSPGK |  |
|  |  | TACI-9-15Fc5 fusion protein (Fc fusion, Full-length chain) STSCREEQGEFYDHLLRDCISCASICGQHPKQCAAFCEDKTHTCPPCPAPEAEGAPSVFLFPPKPKDTLMISRTPEVTCVVVDVSHEDPEVKFNWYVDGVEVHNAKTKPREEQYNSTYRVVSVLTVLHQDWLNGKEYKCKVSNKALPSSIEKTISKAKGQPREPQVYTLPPSRDELTKNQVSLTCLVKGFYPSDIAVEWESNGQPENNYKTTPPVLDSDGSFFLYSKLTVDKSRWQQGNVFSCSVMHEALHNHYTQKSLSLSPGK | IC50 [3]: 1.44 nM; EC50 [4]: 8.89 nM |
| 64.2 nM | 780 nM | TACI-14 Fc (Fc fusion, Fused directly to Fc; two identical polypeptides) SLSCRKEQGKFYDHLLRDCISCASICGQHPKQCAYFDKTHTCPPCPAPEAEGAPSVFLFPPKPKDTLMISRTPEVTCVVVDVSHEDPEVKFNWYVDGVEVHNAKTKPREEQYNSTYRVVSVLTVLHQDWLNGKEYKCKVSNKALPSSIEKTISKAKGQPREPQVYTLPPSRDELTKNQVSLTCLVKGFYPSDIAVEWESNGQPENNYKTTPPVLDSDGSFFLYSKLTVDKSRWQQGNVFSCSVMHEALHNHYTQKSLSLSPGK |  |
| 0.561 nM | 2.7 nM | TACI-10 Fc (Fc fusion, TACI-9 truncated at the C-terminus by 1 amino acid L, fused directly to Fc; two identical polypeptides) SLSCRKEQGKFYDHLLRDCISCASICGQHPKQCAYFCENKDKTHTCPPCPAPEAEGAPSVFLFPPKPKDTLMISRTPEVTCVVVDVSHEDPEVKFNWYVDGVEVHNAKTKPREEQYNSTYRVVSVLTVLHQDWLNGKEYKCKVSNKALPSSIEKTISKAKGQPREPQVYTLPPSRDELTKNQVSLTCLVKGFYPSDIAVEWESNGQPENNYKTTPPVLDSDGSFFLYSKLTVDKSRWQQGNVFSCSVMHEALHNHYTQKSLSLSPGK |  |
| 0.49 nM | 2.09 nM | TACI-9 Fc (Fc fusion, TACI positions 68-108, no mutation, fused directly to Fc; two identical polypeptides) SLSCRKEQGKFYDHLLRDCISCASICGQHPKQCAYFCENKLDKTHTCPPCPAPEAEGAPSVFLFPPKPKDTLMISRTPEVTCVVVDVSHEDPEVKFNWYVDGVEVHNAKTKPREEQYNSTYRVVSVLTVLHQDWLNGKEYKCKVSNKALPSSIEKTISKAKGQPREPQVYTLPPSRDELTKNQVSLTCLVKGFYPSDIAVEWESNGQPENNYKTTPPVLDSDGSFFLYSKLTVDKSRWQQGNVFSCSVMHEALHNHYTQKSLSLSPGK | EC50 [5]: 0.418 nM; IC50 [6]: 5.02 nM; Kd [7]: 0.018 nM; koff [7]: 0.000207 s⁻¹; kon [7]: 1.15e+07 M⁻¹ s⁻¹; Kd [8]: 0.0748 nM; koff [8]: 1.62e-05 s⁻¹; kon [8]: 217000 M⁻¹ s⁻¹ |
